This passage reports abundance fitness results from the Human Domainome abundance scans (Beltran et al. 2025).

± gives the uncertainty stated by the source.

B1: Spectrin alpha chain, erythrocytic 1, residues 979 to 1036; numbered along this chain, P02549 (parent)
chain: EQRVMALYDFQARSPREVTMKKGDVLTLLSSINKDWWKVEAADHQGIVPAVYVRRLAH
B2: Histidine--tRNA ligase, cytoplasmic, residues 8 to 45; numbered along this chain, P12081 (parent)
chain: EELVKLQGERVRGLKQQKASAELIEEEVAKLLKLKAQL

Variants of B1 are the subject of the first data set. Kind of data set: abundance fitness (aPCA) (normalised: wild type 0, dead -1); higher = more abundant; growth selection in yeast, the domain comes from the species named. Particulars: Homo sapiens.
On to EQRVMALYDFQARSPREVTMKKGDVLTLLSSINKDWWKVEAADHQGIVPAVYVRRSAH [L56S], for which the abundance fitness was -0.006 ± 0.21.
As for EQRVMALYDFQARSPREVTMKKGDVLTLLSSINKDWWKVEAADHQGIVPAVYVRRAAH [L56A], the abundance fitness was -0.882 ± 0.21.
Same read-out and setting: then EQRVMALYDFQARSPREVTMKKGDVLTLLSSINKDWWKVEAADHQGIVPAVYVRRTAH [L56T], with -0.448 ± 0.3.
Same read-out and setting: then EQRVMALYDFQARSPREVTMKKGDVLTLLSSINKDWWKVEAADHQGIVPAVYVRRRAH [L56R], with -0.874 ± 0.2; and EQRVMALYDFQARSPREVTMKKGDVLTLLSSINKDWWKVEAADHQGIVPAVYVRRIAH [L56I], with -0.021 ± 0.12; and EQRVMALYDFQARSPREVTMKKGDVLTLLSSINKDWWKVEAADHQGIVPAVYVRRKAH [L56K], with -0.417 ± 0.45.
The same measure, in the same setting: then EQRVMALYDFQARSPREVTMKKGDVLTLLSSINKDWWKVEAADHQGIVPAVYVRRQAH [L56Q], with -0.848 ± 0.16; and EQRVMALYDFQARSPREVTMKKGDVLTLLSSINKDWWKVEAADHQGIVPAVYVRRMAH [L56M], with -0.029 ± 0.31.
Take EQRVMALYDFQARSPREVTMKKGDVLTLLSSINKDWWKVEAADHQGIVPAVYVRRWAH [L56W]: the abundance fitness is -0.982 ± 0.33.
Still for that read-out and setting: then EQRVMALYDFQARSPREVTMKKGDVLTLLSSINKDWWKVEAADHQGIVPAVYVRRPAH [L56P], with -0.45 ± 0.38.
Turning to EQRVMALYDFQARSPREVTMKKGDVLTLLSSINKDWWKVEAADHQGIVPAVYVRRVAH [L56V], the abundance fitness is -0.207 ± 0.23.
The same measure, in the same setting: then EQRVMALYDFQARSPREVTMKKGDVLTLLSSINKDWWKVEAADHQGIVPAVYVRRCAH [L56C], with -0.169 ± 0.44.
Still for that read-out and setting: in the case of EQRVMALYDFQARSPREVTMKKGDVLTLLSSINKDWWKVEAADHQGIVPAVYVWRLAH [R54W] it was -0.668 ± 0.34.
Still for that read-out and setting: in the case of EQRVMALYDFQARSPREVTMKKGDVLTLLSSINKDWWKVEAADHQGIVPAVYVMRLAH [R54M] it was -0.518 ± 0.26.
Turning to EQRVMALYDFQARSPREVTMKKGDVLTLLSSINKDWWKVEAADHQGIVPAVYVSRLAH [R54S], the abundance fitness was -0.588 ± 0.29.
Regarding EQRVMALYDFQARSPREVTMKKGDVLTLLSSINKDWWKVEAADHQGIVPAVYVPRLAH [R54P], the abundance fitness was -0.292 ± 0.49.
In the case of EQRVMALYDFQARSPREVTMKKGDVLTLLSSINKDWWKVEAADHQGIVPAVYVVRLAH [R54V], the abundance fitness was -0.53 ± 0.12.
On the same count and under the same terms, in the case of EQRVMALYDFQARSPREVTMKKGDVLTLLSSINKDWWKVEAADHQGIVPAVYVNRLAH [R54N] it was -0.668 ± 0.13; in that of EQRVMALYDFQARSPREVTMKKGDVLTLLSSINKDWWKVEAADHQGIVPAVYVQRLAH [R54Q], 0.052 ± 0.26; in that of EQRVMALYDFQARSPREVTMKKGDVLTLLSSINKDWWKVEAADHQGIVPAVYVRRLDH [A57D], 0.507 ± 0.19.
For the variant EQRVMALYDFQARSPREVTMKKGDVLTLLSSINKDWWKVEAADHQGIVPAVYVRRLVH [A57V], the abundance fitness is -0.47 ± 0.23.
The same measure, in the same setting: then EQRVMALYDFQARSPREVTMKKGDVLTLLSSINKDWWKVEAADHQGIVPAVYVRRLQH [A57Q], with 0.18 ± 0.36; and EQRVMALYDFQARSPREVTMKKGDVLTLLSSINKDWWKVEAADHQGIVPAVYVRRLKH [A57K], with 0.933 ± 0.21; and EQRVMALYDFQARSPREVTMKKGDVLTLLSSINKDWWKVEAADHQGIVPAVYVRRLCH [A57C], with -0.092 ± 0.15.
Same read-out and setting: in the case of EQRVMALYDFQARSPREVTMKKGDVLTLLSSINKDWWKVEAADHQGIVPAVYVRRLNH [A57N] it was 0.105 ± 0.47.
Still for that read-out and setting: then EQRVMALYDFQARSPREVTMKKGDVLTLLSSINKDWWKVEAADHQGIVPAVYVRRLSH [A57S], with 0.236 ± 0.16; and EQRVMALYDFQARSPREVTMKKGDVLTLLSSINKDWWKVEAADHQGIVPAVYVRRLPH [A57P], with 0.297 ± 0.14.
On to EQRVMALYDFQARSPREVTMKKGDVLTLLSSINKDWWKVEAADHQGIVPAVYVRRLRH [A57R], for which the abundance fitness was -0.053 ± 0.16.
As for EQRVMALYDFQARSPREVTMKKGDVLTLLSSINKDWWKVEAADHQGIVPAVYVRRLTH [A57T], the abundance fitness is -0.022 ± 0.43.
Still for that read-out and setting: in the case of EQRVMALYDFQARSPREVTMKKGDVLTLLSSINKDWWKVEAADHQGIVPAVYVRRLAY [H58Y] it was 0.141 ± 0.27.
On the same count and under the same terms, in the case of EQRVMALYDFQARSPREVTMKKGDVLTLLSSINKDWWKVEAADHQGIVPAVYVRRLAS [H58S] it was 0.088 ± 0.31; in that of EQRVMALYDFQARSPREVTMKKGDVLTLLSSINKDWWKVEAADHQGIVPAVYVRRLAR [H58R], -0.078 ± 0.39; in that of EQRVMALYDFQARSPREVTMKKGDVLTLLSSINKDWWKVEAADHQGIVPAVYVRRLAP [H58P], 0.358 ± 0.2.

In the next data set the parent is B2. Described as above. As to conditions: Homo sapiens.
As to EELVQLQGERVRGLKQQKASAELIEEEVAKLLKLKAQL [K5Q], the abundance fitness was -0.019 ± 0.099.
Still for that read-out and setting: then EELVELQGERVRGLKQQKASAELIEEEVAKLLKLKAQL [K5E], with -0.026 ± 0.1.
Regarding EELVILQGERVRGLKQQKASAELIEEEVAKLLKLKAQL [K5I], the abundance fitness was -0.436 ± 0.099.
Still for that read-out and setting: in the case of EELVLLQGERVRGLKQQKASAELIEEEVAKLLKLKAQL [K5L] it was -0.394 ± 0.071; in that of EELVPLQGERVRGLKQQKASAELIEEEVAKLLKLKAQL [K5P], -0.54 ± 0.078.
On the same count and under the same terms, then EELVSLQGERVRGLKQQKASAELIEEEVAKLLKLKAQL [K5S], with -0.531 ± 0.072; and EELVHLQGERVRGLKQQKASAELIEEEVAKLLKLKAQL [K5H], with -0.223 ± 0.078.
Same read-out and setting: then EELVMLQGERVRGLKQQKASAELIEEEVAKLLKLKAQL [K5M], with -0.143 ± 0.11; and EELVFLQGERVRGLKQQKASAELIEEEVAKLLKLKAQL [K5F], with -0.443 ± 0.084.
As to EELVCLQGERVRGLKQQKASAELIEEEVAKLLKLKAQL [K5C], the abundance fitness is -0.531 ± 0.13.
On the same count and under the same terms, then EELVALQGERVRGLKQQKASAELIEEEVAKLLKLKAQL [K5A], with -0.234 ± 0.085; and EELVVLQGERVRGLKQQKASAELIEEEVAKLLKLKAQL [K5V], with -0.611 ± 0.084; and EELVGLQGERVRGLKQQKASAELIEEEVAKLLKLKAQL [K5G], with -0.407 ± 0.07.
Same read-out and setting: in the case of EELVRLQGERVRGLKQQKASAELIEEEVAKLLKLKAQL [K5R] it was -0.269 ± 0.088; in that of EELQKLQGERVRGLKQQKASAELIEEEVAKLLKLKAQL [V4Q], -0.563 ± 0.11; in that of EELMKLQGERVRGLKQQKASAELIEEEVAKLLKLKAQL [V4M], -0.079 ± 0.092.
Still for that read-out and setting: in the case of EELRKLQGERVRGLKQQKASAELIEEEVAKLLKLKAQL [V4R] it was -0.544 ± 0.077; in that of EELLKLQGERVRGLKQQKASAELIEEEVAKLLKLKAQL [V4L], -0.201 ± 0.083; in that of EELWKLQGERVRGLKQQKASAELIEEEVAKLLKLKAQL [V4W], -0.468 ± 0.12.
For EELTKLQGERVRGLKQQKASAELIEEEVAKLLKLKAQL [V4T], the abundance fitness was -0.19 ± 0.082.
In the case of EELYKLQGERVRGLKQQKASAELIEEEVAKLLKLKAQL [V4Y], the abundance fitness was found to be 0.077 ± 0.11.
Consider EELCKLQGERVRGLKQQKASAELIEEEVAKLLKLKAQL [V4C], for which the abundance fitness is -0.46 ± 0.097.
For EELEKLQGERVRGLKQQKASAELIEEEVAKLLKLKAQL [V4E], the abundance fitness was -0.139 ± 0.088.
For the variant EELFKLQGERVRGLKQQKASAELIEEEVAKLLKLKAQL [V4F], the abundance fitness is -0.109 ± 0.096.
Same read-out and setting: then EELSKLQGERVRGLKQQKASAELIEEEVAKLLKLKAQL [V4S], with -0.264 ± 0.077.
